Data: article doi:10.1101/2020.02.07.938530
Like-named read-outs stand apart in the source and are kept apart here.

Key:
[1] = target: 5FLAG-Scc1 (yeast (budding yeast, Saccharomyces cerevisiae)) (UniProt Q12158); test: co-IP
[2] = target: 5FLAG-Scc1 (yeast (budding yeast, Saccharomyces cerevisiae)) (UniProt Q12158); test: co-IP; remark: listed apart in the source

UniProt Q12158, sequence (Q12158 whole entry): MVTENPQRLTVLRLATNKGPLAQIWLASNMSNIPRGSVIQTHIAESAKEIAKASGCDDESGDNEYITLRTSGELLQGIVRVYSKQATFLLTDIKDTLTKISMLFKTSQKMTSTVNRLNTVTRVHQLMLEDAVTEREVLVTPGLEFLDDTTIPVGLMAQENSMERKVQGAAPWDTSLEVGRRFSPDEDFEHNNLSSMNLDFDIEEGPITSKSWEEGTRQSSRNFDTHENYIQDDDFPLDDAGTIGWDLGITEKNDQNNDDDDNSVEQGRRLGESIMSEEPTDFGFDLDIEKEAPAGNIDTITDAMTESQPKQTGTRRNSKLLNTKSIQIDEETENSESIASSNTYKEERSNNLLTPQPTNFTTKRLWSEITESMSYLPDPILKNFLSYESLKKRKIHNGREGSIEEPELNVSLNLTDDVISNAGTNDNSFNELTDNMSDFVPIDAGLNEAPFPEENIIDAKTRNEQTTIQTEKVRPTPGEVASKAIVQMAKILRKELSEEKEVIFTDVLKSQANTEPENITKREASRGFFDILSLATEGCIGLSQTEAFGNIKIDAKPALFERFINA

percentage of cohesin dimers [1]: 40% | percentage of cohesin dimers [2]: 20%
Substance: GFP-Scc1 (from UniProt Q12158 1-566) (natural protein)
